# Test: soluble on expression in E. coli; label from the status in PepcDB or PDB records
row,Sequence,soluble on expression in E. coli
1,MKIRTSMIALSLAALLSGCQSLNTEGLMQSGAQAFQAATLNDADVKALSEKSCVEMDQKAQIASADSQYGKRMAKIAAALGDNINGTPANYKVYVTKDVNAWAMANGCIRVYSGLMDMMTDNEVEGVVGHEMGHVALGHTRKAMQVAYGTTALRTAIASAGGVVGTLSQSQLADLGEKLVNAQFSQKQESEADDYSFDLLKKRGIDPNGLVTSFEKLASMEAGRNSSMFDDHPSSQARAEHIRQRIAAEK,not soluble
2,MKIRYKFGVWMLCLMFPALVWAENAKSICTSFTQQGRQVTFHLADSAALQLQLCSPSVVRIWFSPDGKLQRRNASFAVINEELEDVGTVHVDEQAACYEIFTSKLRIRVNKSPMSIQIFDKYQKLLFSDYADKGHVSEGTKKVEYKTLRRDEHFFGLGEKTGKMDRRGESYKMWNSDKPCYSVVEDPLYKSIPFFMSSYRYGIFLDNTYKTEFKFGTESRDYYSFEAPDGEMIYYFIFGKDYKEILSQYVGLTGKPIMPPKWALGFAQCRGLLTSEKLSREIAEGYRTRGIPCDIIYQDIGWTEHLQDFEWRKGNYGHPKKMLADLKEMGFKVVVSQDPVISQANKKQWEEADRLGYFVKDSTNGKSYDMPWPWGGNCGVVDFTLPAVADWWGTYQQKPIDDGISGFWTDMGEPAWSNEEQTERLVMKHHLGMHDEIHNVYGLTWDKVVKEQFEKRNPNRRVFQMTRAAYAGLQRYTFGWTGDCGNGDDVLQGWGQLANQIPVILSAGLGVIPFTTCDITGYCGDIEDYHPFAELYTRWIQFGAFNPLSRIHHEGDNPVEPWLFGPEAEKNAKEAIELKYRLLPYIYTYAREAHDTGLPIMRPLFLEYPADMETFSTDGQFLFGQELLVAPVVKKGARTKNVYLPEGTWIDYNNKQTVYTGEQWTTVEAPLSCIPMFVKQGSIIPTMPVMNYTHEKPVYPLIFEVFPAPKGEEASFTLYEDEGEDLGYQRDEFAKTPVRFRTEEGGYLLSVGAREGKGYAVPAPRNFIFRMYLKTAPKGVTVQGKKVKKVKPERLEENPDDDTESMVWSWDKATGICSLRMPDRGEESRISLRL,not soluble
3,MKISMEGSSVINLEQLSLYQDSLGYLGQQMNFPEKMTFHPKIFEETISKSHPGYEDLLAYREVMMNYTLSEIKAIYTDTFDFSKKHPLYMTFNKFDTQKERGQMLAKLKVLYEMFGLKMVDNELSDFLPLMLQFLQVADFKNDSRAQENLQLVIMIIEDGTYEMANTLAENNNPYAYVVSALRKTLKACIVPLKEVENHA,not soluble
4,MKITHCKLKKKVQKELLRFFVLEVTARSAADILGIHPNSAVLFYRKIRTVINHHLALAADEVFEGPVEPDESDFGGRRKGRRGRGAAGKVVVFGILKRNGRGYTVVVDNAKSETLLPVIKKKIMPDSIVYTDSLSSCDKLDVSGFIHYRINHSKEFADRQNHINGIENFWNQAKRVLRKYNGIDRKSFPLFLKECEFRFNFGTPSQQLKILRDWCGILEHHHHHH,soluble
5,MKITIIGAGNIGSAVAACLAKGHLYNEKDIIISTPHTDKLENLHKQFPAIRIMTENQYAISEADIIILAVKPCIVDEVLSPLRFSRTQILVSLVTGISISHLAHLSETEMPIFRVVPNIAITEHSSLTLITSRKAGKEHQQLIKQTFEEGGKCLFAEEKQLDIISALTSSGIAFALKYIHAAMQAGIELGISAEDAMRMTAYSMEGATELILNHDTHPLLEIEKAATPGGATIKGLNELEHRGFTSAVIHAIKSSATVSTDKETEE,not soluble
6,MKITTWNVNSLNVRLPQVQNLLADNPPDILVLQELKLDQDKFPAAALQMMGWHCVWSGQKTYNGVAIVSRSVPQDVHFGLPALPDDPQRRVIAATVSGVRVINVYCVNGEALDSPKFKYKEQWFAALTEFVRDEMTRHGKLVLLGDFNIAPADADCYDPEKWHEKIHCSSVERQWFQNLLDLGLTDSLRQVHPEGAFYTWFDYRGAMFQRKLGLRIDHILVSPAMAAALKDVRVDLETRALERPSDHAPVTAEFDW,soluble
7,MKITYIHHSSFLVELEHVSMLFDYYAGQLPEIRKDRPLVVFASHFHGDHFAPVIFDLAKDREDVNYVLSKDISKKKVPDNLIGRVTFVKAGEKLALYTEGRKAGLEIETFKSTDEGVAFWITCEGSTIYHAGDLNNWWWEGEDKAWNHNMAANYAHEMEKMEGRTVDAAFVPLDPRLEQWFYLGMKEFMEKVDAKAVIPMHFWKDYSIIEKMRQHPSSEGWRERLVEIHREGEELAI,not soluble
8,MKKAAVSGRLYEVFDVFADKALAGNPLAIVHDCEGLTDACMQAIAREFNLSETVFIHAPANPAHEASVRIFTPAYELPFAGHPTVGAAVSLARRQKTGDETDRLVTLEEKVGIVRCGVILGENSAFAEFDLPRLPEQVDVKIEREEAAAAIGLGTHEIGFENHVPGVWSAGTPCLLVPVHNLIAAAKVSIDPVYVSESLPHVGGRPLPIYVYCRETILFNSHFHARMFVIGANVYEDPATGSAVAAFAGMIQQNDKPVDGSSQWWIEQGMEMGRPSRIRLELDVSKQKLVSARIGGTAVKIAEGRLFVLEHHHHHH,not soluble
9,MKKEIKFSLMYRDMWQSSGKYQPRKDQLERIAPVIVEMGCFARVETNGGAFEQVNLLYGENPNKAVRAFTKPLNEAGIQTHMLDRGLNGLRMFPVPADVRRLMYKVKKAQGVDITRIFDGLNDARNIIPSIKYALEAGMIPQATLCITFSPVHTVEYYSNLADELIAAGAPEICLKDMAGIGRPHFLGQLVKSIKTKHPDVIIEYHGHSGPGFSVASMLEVCENGADIIDVAMEPISWGKVHPDVITIQQMLKDAGFKVPEINMDAYMKARSLTQEFIDDFLGYFMDPSNKETSSLLVGCGLPGGMMGSMMADLKGVHAGINMFLKGKGEPEMTIDQLLVRLFQEVEYVWPRLGYPPLVTPFSQYVKNVALMNVYNMIRGEGRWQAIDQNTWGMILGKSGRLPGKLDPEIIALAKEKGMEFSDADPQQFYPDALDEFRKEMDQNGWEYGPDDEELFELAMHDRQYRDYKSGVAKERFNADLDKAKADRMAKQGYSDEDIKKAKRAGCDPIVAPCSGRLYWEIDTEEQSIAPAIGAEYRTGQPFCYIENQFGYIEKVYCTFTGRITEVVAQGTVVKKGDEIAYLRTAEKEIMWEGANEHIVRVETMPEPRKRITKSAQKN,not soluble
10,MKKEVTEISSYDATNLVFYVNGKRVEEKDVDPKMTLATYLRDKLKLTGTKIGCNEGGCGACTIMISHIENGEIKHFSANSCLMPVCGVFGKAVTTVEGIGSVAKNRLHPVQERLAKAHGSQCGFCTPGFVMAMYALLRNNPNPTISDINLGLQGNLCRCTGYRPILEAFYSFAVDESGTLKVTEENGCGMGENCCKVKKTACGGSDETTPGYTGGERKRKIQLSDMSDCKPYDPTQELIFPPELKLHGYESMSFAYDHHHTKWYQPVSYDDLLSLKRELPHARLISGNSELAIELKFRFIDLPAVINPRQVKVLHEKHLENDGVYMGTGMSLTDMDNYSVQLMKDLPREQTAVLKHVHEMLHWFAGIHVRNVASVAGNIATASPISDLNPIWMASNALVVLDSEARGEKRVHIDEKFFLGYRKTVIQQDEIIKAVIVPLLEENEHFAAYKQAQRREDDIAIVTGAFLVKLDPKTLVVEKIRISYGGMAPTTKLALTTMEKLIGEKWSQTFLDKALGLLSDELKLPAGVPGGMSQYRLSLALSFFFKFFLGVSKKLELTEIKYVDADVKIGQNVPETLYATQLYQEVKANQPAHDPLGRPIKHVSGDKHTTGEAVYCDDINVADCNHIAFVLSPIAHGTLNSIDYTAALEIDGVVGTIDASDVTTGAQMGHHSDTPVFVKETITFHGQPIAAIVATDHEIARKAASLVKLDYSVEKPIVTIKQALEAESFVFKHFVIHSSLNDNEQVIKSDWSKYDRIVEGSIDMGGQEHFYLETQQCIVIPHEDDELEIIISNQCVNDVQIEVAKCLGMAQHKISTKVKRIGGGFGGKESTGAILAVPASLAAKKFGRPMKFKFERFDDMAITGTRHPFTLQYKLAVDENGKFLDLDYTALSNSGHTIDLSMGVMQRAMVHADNVYKFENADITGKMCKTNLASNTAFRGFGGPQGMFGTEIMVKHVAEKFGFNHDEVRVKNFYKEGDCTPFGMHLNQCNVTRTWDECRKNSDYDNRLEEVKKFNDSNKFRKRGIYLTPTRFGIGFGLKQLNQAGALVLVYTDGSVLVSHGGMEMGQGLHTKILQIAARCLEIPIERIHIHDTSTDKVPNASATAASVGSDMNGLAVQDACRQINERLERFKKLDPNGTWDDWVKAAYVDRVSLSASGFGIIHHEPVDFFNGKGAELFGYSVYGTACCEVEIDCLTGDHHLLRTDIVMDVGESLNPAIDIGQIEGAFIQGYGLFTMEEIKIRPDGIRLTRGPGNYKIPSADDAPRHFNVSLLGNSSNKMGIFSSKAIGEPPLFLGSCAFFAIREAVRAYRIQNGNADYFVFHSPATPERIRMACEDFVTSHVPELPEEGTYTPWITSV,not soluble

# From the DeepSol protein solubility set
